Positions count from the first letter of the chain named. Names may count otherwise.
Columns and labels:
Settings in all cases: Homo sapiens
[1] = substrate: Nc1c(O)cccc1C(=O)CC(N)C(=O)O
Description: (§1) Activity of human wild type kynureninase

[2] = substrate: Nc1ccccc1C(=O)C[C@H](N)C(=O)O
Description: as §1

[3] = substrate: Nc1c(O)cccc1C(=O)CC(N)C(=O)O; remark: listed apart in the source
Description: (§2) Ratio of kcat to Km for human wild type kynureninase

[4] = substrate: Nc1ccccc1C(=O)C[C@H](N)C(=O)O; remark: listed apart in the source
Description: as §2

[5] = substrate: Nc1ccccc1C(=O)C[C@H](N)C(=O)O; remark: listed apart in the source
Description: Activity of human kynureninase H102W/S332G/N333T mutant

[6] = substrate: Nc1c(O)cccc1C(=O)CC(N)C(=O)O; remark: listed apart in the source
Description: (§3) Ratio of kcat to Km for human kynureninase H102W/S332G/N333T mutant

[7] = substrate: Nc1ccccc1C(=O)C[C@H](N)C(=O)O; remark: listed apart in the source
Description: as §3

[8] = substrate: Nc1ccccc1C(=O)C[C@H](N)C(=O)O; remark: listed apart in the source
Description: Activity of human kynureninase H102W/N333T mutant

[9] = substrate: Nc1c(O)cccc1C(=O)CC(N)C(=O)O; remark: listed apart in the source
Description: (§4) Ratio of kcat to Km for human kynureninase H102W/N333T mutant

[10] = substrate: Nc1ccccc1C(=O)C[C@H](N)C(=O)O; remark: listed apart in the source
Description: as §4

[11] = substrate: Nc1c(O)cccc1C(=O)CC(N)C(=O)O; remark: listed apart in the source
Description: (§5) Activity of human kynureninase N333T mutant

[12] = substrate: Nc1ccccc1C(=O)C[C@H](N)C(=O)O; remark: listed apart in the source
Description: as §5

[13] = substrate: Nc1c(O)cccc1C(=O)CC(N)C(=O)O; remark: listed apart in the source
Description: (§6) Ratio of kcat to Km for human kynureninase N333T mutant

[14] = substrate: Nc1ccccc1C(=O)C[C@H](N)C(=O)O; remark: listed apart in the source
Description: as §6

[15] = substrate: Nc1c(O)cccc1C(=O)CC(N)C(=O)O; remark: listed apart in the source
Description: (§7) Activity of human kynureninase S332G/N333T mutant

[16] = substrate: Nc1ccccc1C(=O)C[C@H](N)C(=O)O; remark: listed apart in the source
Description: as §7

[17] = substrate: Nc1c(O)cccc1C(=O)CC(N)C(=O)O; remark: listed apart in the source
Description: (§8) Ratio of kcat to Km for human kynureninase S332G/N333T mutant

[18] = substrate: Nc1ccccc1C(=O)C[C@H](N)C(=O)O; remark: listed apart in the source
Description: as §8

B1: Kynureninase (Homo sapiens), Q16719 (protein)
chain: MEPSSLELPADTVQRIAAELKCHPTDERVALHLDEEDKLRHFRECFYIPKIQDLPPVDLSLVNKDENAIYFLGNSLGLQPKMVKTYLEEELDKWAKIAAYGHEVGKRPWITGDESIVGLMKDIVGANEKEIALMNALTVNLHLLMLSFFKPTPKRYKILLEAKAFPSDHYAIESQLQLHGLNIEESMRMIKPREGEETLRIEDILEVIEKEGDSIAVILFSGVHFYTGQHFNIPAITKAGQAKGCYVGFDLAHAVGNVELYLHDWGVDFACWCSYKYLNAGAGGIAGAFIHEKHAHTIKPALVGWFGHELSTRFKMDNKLQLIPGVCGFRISNPPILLVCSLHASLEIFKQATMKALRKKSVLLTGYLEYLIKHNYGKDKAATKKPVVNIITPSHVEERGCQLTITFSVPNKDVFQELEKRGVVCDKRNPNGIRVAPVPLYNSFHDVYKFTNLLTSILDSAETKN
[1]
  Km: 28.3 µM
  kcat: 3.5 s⁻¹
[2]
  Km: 495 µM
  kcat: 0.23 s⁻¹
[3]
  kcat/Km: 1.23 ×10⁵ /M/s
[4]
  kcat/Km: 465 M⁻¹ s⁻¹

B2: Kynureninase (Homo sapiens), Q16719 H102W,S332G,N333T (protein)
chain: B1 chain with H102W, S332G, N333T
[5]
  Km: 143 µM
  kcat: 0.018 s⁻¹
[6]
  kcat/Km: < 0.0165 M⁻¹ s⁻¹
[7]
  kcat/Km: 126 M⁻¹ s⁻¹

B3: Kynureninase (Homo sapiens), Q16719 H102W,N333T (protein)
chain: B1 chain with H102W, N333T
[8]
  Km: 327 µM
  kcat: 0.007 s⁻¹
[9]
  kcat/Km: < 0.0165 M⁻¹ s⁻¹
[10]
  kcat/Km: 21.4 M⁻¹ s⁻¹

B4: Kynureninase (Homo sapiens), Q16719 N333T (protein)
chain: B1 chain with N333T
[11]
  Km: > 200 µM
  kcat: < 3.9 ×10⁻³ /s
[12]
  Km: 499 µM
  kcat: 0.026 s⁻¹
[13]
  kcat/Km: 19.8 M⁻¹ s⁻¹
[14]
  kcat/Km: 52.1 M⁻¹ s⁻¹

B5: Kynureninase (Homo sapiens), Q16719 S332G,N333T (protein)
chain: B1 chain with S332G, N333T
[15]
  Km: > 510 µM
  kcat: < 10.9 ×10⁻³ /s
[16]
  Km: 540 µM
  kcat: 0.017 s⁻¹
[17]
  kcat/Km: 21.5 M⁻¹ s⁻¹
[18]
  kcat/Km: 31.4 M⁻¹ s⁻¹

Reference: ChEMBL document CHEMBL1139388, “Crystal structure of the Homo sapiens kynureninase-3-hydroxyhippuric acid inhibitor complex: insights into the molecular basis of kynureninase substrate specificity” (J Med Chem, 2009)
